The target of experiment [1] is T1, Human nerve growth factor (NGF) (human, UniProt P01138 122-241). Kind of experiment: cell-based or functional assay.
For experiment [2], the target named is T1, Human nerve growth factor (NGF). As to the kind of experiment: SPR, kinetic fit (caption of panel 7d: hNGF; BedinvetmAb; 1:1 binding); the set-up for Bedinvetmab is not described in the text; column head 'Kinetics affinity KD (nM)'.
The target in experiment [3] is T2, Canine FcRn-B2M recombinant protein (Immunitrack) (canine, UniProt A0A8I3PFR8 25-296; P19341 1-42).
T2 chain 1: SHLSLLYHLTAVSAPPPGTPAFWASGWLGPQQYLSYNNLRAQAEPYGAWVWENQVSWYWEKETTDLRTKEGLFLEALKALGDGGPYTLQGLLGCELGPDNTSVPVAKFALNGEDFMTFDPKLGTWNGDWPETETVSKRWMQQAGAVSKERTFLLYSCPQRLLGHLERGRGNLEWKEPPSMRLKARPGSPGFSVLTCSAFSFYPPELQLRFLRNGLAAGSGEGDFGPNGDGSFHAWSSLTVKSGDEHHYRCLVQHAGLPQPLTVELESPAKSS
T2 chain 2: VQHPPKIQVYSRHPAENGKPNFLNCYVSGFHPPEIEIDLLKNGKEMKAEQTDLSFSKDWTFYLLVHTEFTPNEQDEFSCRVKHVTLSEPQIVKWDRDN
As to the kind of experiment: SPR (Biacore 8K), canine FcRn-B2M amine-coupled on CM5, running buffer pH 6, fusion protein as analyte; steady state affinity. For orientation: SPR reads the build-up and loss of mass on a sensor chip optically.

Experiment [4] deals with T1, Human nerve growth factor (NGF). Kind of experiment: SPR (Biacore 8K), PetML119 captured on Protein A chip, human NGF as analyte, multi-cycle kinetics; column head 'Kinetics affinity KD (nM)'.
Experiment [5] addresses T3, Protein A (Sensor Chip Protein A, Cytiva) (UniProt P38507 212-269).
T3 construct: Commercial chip ligand; It may be a recombinant variant of staphylococcal protein A
As to the kind of experiment: SPR (Biacore 8K), Sensor Chip Protein A, fusion protein produced in CHOZN injected over the chip, 1:1 binding kinetic fit; column head 'Kinetics affinity KD (nM)'.

In experiment [6] the target is T4, Rat nerve growth factor (NGF) (rat, UniProt P25427 122-241).
T4 construct: Bought reagent; also called rat NGF
As to the kind of experiment: SPR (Biacore 8K), PetML119 captured on Protein A chip, rat NGF as analyte, multi-cycle kinetics; column head 'Kinetics affinity KD (nM)'.

Experiment [7] concerns the target T3, Protein A (Sensor Chip Protein A, …). As to the kind of experiment: SPR (Biacore 8K), Sensor Chip Protein A, fusion protein produced in CHO-s injected over the chip, 1:1 binding kinetic fit; column head 'Kinetics affinity KD (nM)'.
Experiment [8] deals with T5, Murine FcRn-B2M recombinant protein (Immunitrack) (murine, UniProt Q61559 22-297; P01887 21-119, limits assumed).
T5 construct: Bought reagent; also called murine neonatal receptor
T5 sequence (looked up): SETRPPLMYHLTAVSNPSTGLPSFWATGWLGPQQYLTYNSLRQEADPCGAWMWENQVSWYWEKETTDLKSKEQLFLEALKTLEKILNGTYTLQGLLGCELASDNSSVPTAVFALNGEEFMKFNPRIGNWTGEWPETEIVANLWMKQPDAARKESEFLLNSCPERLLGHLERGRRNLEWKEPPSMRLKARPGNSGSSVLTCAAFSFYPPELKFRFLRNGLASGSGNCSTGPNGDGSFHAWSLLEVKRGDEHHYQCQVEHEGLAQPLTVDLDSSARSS
T5 sequence (b2m, looked up): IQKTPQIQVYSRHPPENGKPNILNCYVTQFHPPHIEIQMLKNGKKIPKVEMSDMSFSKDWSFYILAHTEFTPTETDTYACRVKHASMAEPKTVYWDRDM
Kind of experiment: SPR (Biacore 8K), murine FcRn-B2M amine-coupled on CM5, running buffer pH 6, fusion protein as analyte; steady state affinity.

The target in experiment [9] is T5, Murine FcRn-B2M recombinant protein …. The description is as above. This is another data set of the same source.
For experiment [10], the target named is T2, Canine FcRn-B2M recombinant protein …. Kind of experiment: SPR (Biacore 8K), canine FcRn-B2M amine-coupled on CM5, running buffer pH 6, fusion protein as analyte; steady state affinity.

Read-outs that look alike come from different tables or passages of the source.

B1: Bedinvetmab (antibody, V domains shown)
VH: EVQLVESGGDLVKPGGSLRLSCVASGFTFSSHGMHWVRQSPGKGLQWVAVINSGGSSTYYTDAVKGRFTISRDNAKNTVYLQMNSLRAEDTAMYYCAKESVGGWEQLVGPHFDYWGQGTLVIVSS
VL: QSVLTQPTSVSGSLGQRVTISCSGSTNNIGILGASWYQLFPGKAPKLLVYGNGNRPSGVPDRFSGADSGDSVTLTITGLQAEDEADYYCQSFDTTLGAHVFGGGTHLTVL
Take B1: in experiment [1], the “IC50 (nM), inhibition of NGF-dependent TF-1 cell proliferation” value came to 1.65 nM. This molecule showed a Kd in experiment [2] of 0.073 nM.

B2: PetML119 (canine p75NTR ECD-canine IgGB wt Fc protein fusion) (Fc fusion)
chain: KEACPTGLYTHSGECCKACNLGEGVAQPCGANQTVCEPCLDSVTFSDVVSATEPCKPCTECVGLQSMSAPCVEADDAVCRCAYGYYQDETTGRCEACRVCEAGSGLVFSCQDRQNTVCEECPDGTYSDEANHVDPCLPCTVCEDTERQLRECTRWADAECEEIPGGGGRENGRVPRPPDCPKCPAPEMLGGPSVFIFPPKPKDTLLIARTPEVTCVVVDLDPEDPEVQISWFVDGKQMQTAKTQPREEQFNGTYRVVSVLPIGHQDWLKGKQFTCKVNNKALPSPIERTISKARGQAHQPSVYVLPPSREELSKNTVSLTCLIKDFFPPDIDVEWQSNGQQEPESKYRTTPPQLDEDGSYFLYSKLSVDKSRWQRGDTFICAVMHEALHNHYTQKSLSHSPGK
notes: Glycosylated, made in CHO cells; also called Fc-Bwt; Sample 1
In the case of B2, the Kd in [3] stood at 6000 nM; in experiment [4], 0.12 nM; in [5], 1.3 nM; in [6], 0.12 nM; in experiment [7], 2.8 nM; in experiment [8] it was 2000 nM. Besides, the “IC50 (nM), inhibition of NGF-dependent TF-1 cell proliferation” value in experiment [1] turned out to be 15.2 nM.

B3: PetML122 (canine p75NTR ECD-canine Fc YTE protein fusion) (Fc fusion)
chain: KEACPTGLYTHSGECCKACNLGEGVAQPCGANQTVCEPCLDSVTFSDVVSATEPCKPCTECVGLQSMSAPCVEADDAVCRCAYGYYQDETTGRCEACRVCEAGSGLVFSCQDRQNTVCEECPDGTYSDEANHVDPCLPCTVCEDTERQLRECTRWADAECEEIPGGGGRENGRVPRPPDCPKCPAPEMLGGPSVFIFPPKPKDTLYITREPEVTCVVVDLDPEDPEVQISWFVDGKQMQTAKTQPREEQFNGTYRVVSVLPIGHQDWLKGKQFTCKVNNKALPSPIERTISKARGQAHQPSVYVLPPSREELSKNTVSLTCLIKDFFPPDIDVEWQSNGQQEPESKYRTTPPQLDEDGSYFLYSKLSVDKSRWQRGDTFICAVMHEALHNHYTQKSLSHSPGK
notes: also called Fc-B-YTE; Sample 2
As for B3, the Kd in experiment [9] turned out to be 90 nM; in experiment [5] it was 15 nM; in [10] it was 400 nM.

Usually Kd stands for the constant that tells how readily two partners part at equilibrium.
